A short description of series [1]: Body weight and food intake in C57BL/6 mice, fusion protein conjugates, 30 nmol/kg daily 10 days. Format: in vivo. The procedure: (§1) 10 week old male C57BL/6 mice were injected everyday subcutaneously with 15 nmol/kg of the fusion protein conjugates (i.e., MLC002, MLC 004, MLC 005, MLC 006, MLC 007, MLC 008, and MLC 009) for 14 days. Food intake and body weight were measured daily and five animals were used for each treatment group. Body weight (BW) was monitored for each individual animal, but food intake for each group animals was measured together. Day 1 and Day 14 are first day and last day of molecule dosage. % BW loss=100*(BW on Day n-BW on Day 1)/(BW on Day 1). Cumulative food intake on Day n represents sum of food intake from Day 1 to Day n. Data are indicated as mean values and standard error (SEM) or pooled values. Statistical analysis was performed by One-way ANOVA. Body weight reduction on Day 11 is calculated by −1*(% BW loss−% BW loss of vehicle group); Cumulative food intake reduction is calculated by −100*(cumulative food intake-cumulative food intake of vehicle)/cumulative food intake of vehicle.
Data were calculated in the same way as described above. Day 1 and Day 10 are first day and last day of the administration.
MLC014 was used as a negative control. MLC014 has an amino acid sequence of SEQ ID NO: 261, which contains a linker fused to the N terminal of GDF15, with a CRM conjugated to the lysine residue in the linker. Tirzepatide was also used as a control.

Series [2] in a line: Efficacy in db/db mice: body weight, food intake, glucose, biomarkers, daily sc 14 days. The format is in vivo. The procedure:
FIGS. 4A-4D show In vivo efficacy in db/db mice. To evaluate the body weight, food intake and glucose effects of the fusion proteins, 8 week old male db/db mice were dosed everyday subcutaneously with 30 nmol/kg protein for 14 days. […] Compared to Vehicle control: ***, p<0.001. Data are expressed as mean values and standard error (SEM) for FIGS. 4A, 4B and 4D. n=5 for each treatment group. For FIG. 4C, a pooled food intake was measured for each treatment group.
FIGS. 5A-5F show In vivo efficacy in db/db mice. To evaluate the body weight, food intake and glucose effects of the fusion proteins, 8 week old male db/db mice were dosed everyday subcutaneously with different concentrations of proteins for 14 days. FIGS. 5A and 5B show body weight loss upon protein treatments from Day1 to Day15. […] Compared to Vehicle control: ***, p<0.001; **, p<0.01; *, p<0.05; ns, non-statistically significant; FIGS. 5D and 5E show cumulative food intake with protein treatments from Day1 to Day15. […] Compared to Vehicle control: ***, p<0.001**, p<0.01; *, p<0.05; ns, non-statistically significant. Data are expressed as mean values and standard error (SEM) for FIGS. 5A, 5B, 5C and 5F. n=5 for each treatment group. For FIGS. 5D and 5E, a pooled food intake was measured for each treatment group.
FIGS. 8A-8I show In vivo efficacy in db/db mice. To evaluate the body weight, food intake and glucose effects of the fusion proteins, 8 week old male db/db mice were dosed everyday subcutaneously with different concentrations of proteins for 14 days. […] FIGS. 8D-8F show body weight loss upon dose titrations of fusion protein conjugates. […] Data are expressed as mean values and standard error (SEM) for FIGS. 8A and 8C-I. n=5 for each treatment group. For FIG. 8B, a pooled food intake was measured for each treatment group.
Selected fusion protein conjugates are assessed in disease animal models (DIO mice, db/db mice, etc.) to determine body weight, food intake, glucose efficacy with dose responses. Some biomarkers are also measured, including fasting insulin, plasma triglyceride, cholesterol, liver triglyceride, and inflammatory biomarkers (ALT, AST and CRP).
8 week old male db/db mice were injected everyday subcutaneously with designated proteins for 14 days. Age matched lean mice were used as control. Food intake and body weight were measured daily and five animals were used for each treatment group. Fasting glucose were tested on designated days as shown in each figure. Body weight was monitored for each individual animal, but food intake for each group animals was measured together. Day 1 and Day 14 are first day and last day of molecule dosage. % BW loss=100*(BW on Day n-BW on Day 1)/(BW on Day 1). Cumulative food intake on Day n represents sum of food intake from Day 1 to Day n. Terminal blood was collected and EDTA-2K plasma was prepared and frozen at −80° C. for biomarker measurement. Liver was also collected and frozen in liquid nitrogen and store at −80° C. Data are indicated as mean values and standard error (SEM) or pooled values. Statistical analysis was performed by One-way ANOVA.

Series [3] in a line: PK study in non-human primates, single sc dose 5 nmol/kg, plasma ELISA. The conditions noted are these: monkey, single sc dose 5 nmol/kg. (In an ELISA, binding on a coated surface is turned into a signal by an enzyme label.)
Series [4] can be described thus: Body weight and food intake in C57BL/6 mice, unconjugated fusion proteins, 30 nmol/kg daily 10 days. Format: in vivo. As to conditions: for Body weight reduction at 30 nmol/kg (% reduction compared to vehicle)(Day11) / Cumulative food intake reduction at 30 nmol/kg (% reduction compared to vehicle)(Day11): C57 mice, 30 nmol/kg daily, Day11, unconjugated fusion proteins. The procedure: as §1
As described in the above method, a daily dose of 30 nmol/kg of the unconjugated fusion proteins (i.e., MLC100, MLC023, MLC022, MLC020, MLC003, MLC124, MLC021, MLC019, MLC102) were administered to C57BL/6 for 10 days. Data were calculated as above method. Day 1 and Day 10 are first day and last day of administration.

The nature of series [5]: Pharmacokinetic measurement in mouse, single sc dose 30 nmol/kg, plasma ELISA. As to conditions: for Cmax: read-out: Cmax (nmol/L), single sc dose 30 nmol/kg; for exposure (Cmax and AUC) / half-life (T1/2): single sc 30 nmol/kg, in words; for AUC0-24 h / Terminal t1/2 / Tmax: single sc dose 30 nmol/kg.
[6] abbreviates: 30 nmol/kg, FIG. 8A-C, versus Semaglutide, Tirzepatide and MLC014.

Where a chain is given by its changes, count along the chain named.

A word on the Tmax: it is the time at which the peak concentration occurs.

B1: MLC090: fusion polypeptide SEQ ID NO: 379 conjugated with Moiety C at 39C of Linker (conjugate)
chain: HGEGTFTSDVSSYLEEQAAKEFIAWLVRGGGGAQPGAQPGAQPGAQPGAQPGAQPGAQPGAQPGQEPGQCPGQEPGAQPGQEPGAQPGQEPGAQPGQEPGAQPGQEPGAQPARQGDHCPLGPGRCCRLHTVRASLEDLGWADWVLSPREVQVTMCIGACPSQFRAANLHAQIKTSLHRLKPDTVPAPCCVPASYNPMVLIQKTDTGVSLQTYDDLLAKDCHCI
modifications: Moiety C conjugated at linker Cys39
Consider B1, for which, in series [1], the “Body weight reduction at 30 nmol/kg (% reduction compared to vehicle)(Day11)” value was found to be 24.5% and the “Cumulative food intake reduction at 30 nmol/kg (% reduction compared to vehicle)(Day11)” value worked out at 44.4%. For the same molecule, in series [2] (setting [6]), the body weight loss result was “more body weight loss, food intake suppression and glycemic control”; the food intake suppression result was “more body weight loss, food intake suppression and glycemic control”; the glycemic control result was “more body weight loss, food intake suppression and glycemic control”. In series [2] (FIG. 8 study), the efficacy entry is “better efficacy than Semaglutide and GDF15 derivative (MLC014)”. For the same molecule, in series [3], the “AUC0-96 h” value is 1.987 µM·h, the “Terminal t1/2” value stood at 40 h and the “Tmax” value came out at 7 h. For the same molecule, the Cmax in series [3] (read-out: Cmax (nmol/L)) amounted to 36 nmol/L.

B2: MLC102: unconjugated GLP-1/GDF15 fusion protein (protein)
chain: HGEGTFTSDVSSYLEEQAAKEFIAWLVRGGGGQEPGAQPGQEPGAQPGQEPGAQPGQEPGAQPGQEPGAQPGQEPGAQPGAQPGAQPGAQPGAQPGAQPGAQPGAQPGAQPGAQPGAQPGAQPGAQPGAQPGAQPGAQPGAQPGAQPGAQPARQGDHCPLGPGRCCRLHTVRASLEDLGWADWVLSPREVQVTMCIGACPSQFRAANLHAQIKTSLHRLKPDTVPAPCCVPASYNPMVLIQKTDTGVSLQTYDDLLAKDCHCI
For the molecule B2, in series [4], the “Body weight reduction at 30 nmol/kg (% reduction compared to vehicle)(Day11)” value came out at 29.3% and the “Cumulative food intake reduction at 30 nmol/kg (% reduction compared to vehicle)(Day11)” value amounted to 36.9%.

B3: MLC003: unconjugated GLP-1/GDF15 fusion protein (protein)
chain: HGEGTFTSDVSSYLEEQAAKEFIAWLVRGGGGQEPGQEPGQEPGQEPGQEPGQEPGQEPGQEPGAQPGAQPARQGDHCPLGPGRCCRLHTVRASLEDLGWADWVLSPREVQVTMCIGACPSQFRAANLHAQIKTSLHRLRPDTVPAPCCVPASYNPMVLIQRTDTGVSLQTYDDLLARDCHCI
With B3, in series [4], the “Body weight reduction at 30 nmol/kg (% reduction compared to vehicle)(Day11)” value is recorded as 15.5% and the “Cumulative food intake reduction at 30 nmol/kg (% reduction compared to vehicle)(Day11)” value is reported as 25.3%. Also, in series [5], the Cmax was found to be 24.7 nmol/L; the “exposure (Cmax and AUC)” value was “much shorter half-lives and exposures than MLC002 and MLC004”; the “half-life (T1/2)” value was “much shorter half-lives and exposures than MLC002 and MLC004”; the “AUC0-24 h” value stood at 0.1074 µM·h. Further, in series [5], the “Terminal t1/2” value came out at 3.5 h and the “Tmax” value came to 1.0 h.

B4: MLC020: unconjugated GLP-1/GDF15 fusion protein (protein)
chain: B3 chain with R140K, R162K, R178K
As for B4, in series [4], the “Body weight reduction at 30 nmol/kg (% reduction compared to vehicle)(Day11)” value was 17.0% and the “Cumulative food intake reduction at 30 nmol/kg (% reduction compared to vehicle)(Day11)” value amounted to 26.0%.

B5: MLC100: unconjugated GLP-1/GDF15 fusion protein (protein)
chain: HGEGTFTSDVSSYLEEQAAKEFIAWLVRGGGGQEPARQGDHCPLGPGRCCRLHTVRASLEDLGWADWVLSPREVQVTMCIGACPSQFRAANLHAQIKTSLHRLKPDTVPAPCCVPASYNPMVLIQKTDTGVSLQTYDDLLAKDCHCI
Turning to B5, in series [4], the “Body weight reduction at 30 nmol/kg (% reduction compared to vehicle)(Day11)” value is given as 9.9% and the “Cumulative food intake reduction at 30 nmol/kg (% reduction compared to vehicle)(Day11)” value is listed as 26.3%.

B6: MLC023: unconjugated GLP-1/GDF15 fusion protein (protein)
chain: HGEGTFTSDVSSYLEEQAAKEFIAWLVRGGGGQEPGQEPGQEPARQGDHCPLGPGRCCRLHTVRASLEDLGWADWVLSPREVQVTMCIGACPSQFRAANLHAQIKTSLHRLKPDTVPAPCCVPASYNPMVLIQKTDTGVSLQTYDDLLAKDCHCI
For B6, in series [4], the “Body weight reduction at 30 nmol/kg (% reduction compared to vehicle)(Day11)” value was 12.5% and the “Cumulative food intake reduction at 30 nmol/kg (% reduction compared to vehicle)(Day11)” value is given as 31.7%.

B7: MLC019: unconjugated GLP-1/GDF15 fusion protein, linker of at least 80 residues (protein)
chain: HGEGTFTSDVSSYLEEQAAKEFIAWLVRGGGGQEPGAQPGQEPGAQPGQEPGAQPGQEPGAQPGQEPGAQPGQEPGAQPGAQPGAQPGAQPGAQPGAQPGAQPGAQPGAQPARQGDHCPLGPGRCCRLHTVRASLEDLGWADWVLSPREVQVTMCIGACPSQFRAANLHAQIKTSLHRLRPDTVPAPCCVPASYNPMVLIQRTDTGVSLQTYDDLLARDCHCI
On to B7, for which, in series [4], the “Body weight reduction at 30 nmol/kg (% reduction compared to vehicle)(Day11)” value came out at 23.0% and the “Cumulative food intake reduction at 30 nmol/kg (% reduction compared to vehicle)(Day11)” value stood at 48.6%. Further, the “in vivo efficacy (food intake and body weight reduction)” value in series [4] (unconjugated fusion proteins, 30 nmol/kg daily 10 days, by linker length) is on record as “the most significant results among all the tested fusion proteins”. In series [5], the Cmax amounted to 23.7 nmol/L; the “exposure (Cmax and AUC)” value was “much shorter half-lives and exposures than MLC002 and MLC004”; the “half-life (T1/2)” value is “much shorter half-lives and exposures than MLC002 and MLC004”; the “AUC0-24 h” value was 0.2639 µM·h. Also, in series [5], the “Terminal t1/2” value amounted to 4.8 h and the “Tmax” value was 4.0 h.
